Assay results from patent US20220289795, “EFFICIENT METHOD FOR PREPARING PPR PROTEIN AND USE OF THE SAME” (EditForce, Inc., published 2022).
Changes are numbered by the printed parent chain.

Key:
Experiment in all cases: ELONA; RPB-ELISA
v3.1_PPR19 = target: T1, v3.1_PPR19 (Artificial Sequence); conditions: tags: luciferase fusion; label: 5'-biotin
T1 chain: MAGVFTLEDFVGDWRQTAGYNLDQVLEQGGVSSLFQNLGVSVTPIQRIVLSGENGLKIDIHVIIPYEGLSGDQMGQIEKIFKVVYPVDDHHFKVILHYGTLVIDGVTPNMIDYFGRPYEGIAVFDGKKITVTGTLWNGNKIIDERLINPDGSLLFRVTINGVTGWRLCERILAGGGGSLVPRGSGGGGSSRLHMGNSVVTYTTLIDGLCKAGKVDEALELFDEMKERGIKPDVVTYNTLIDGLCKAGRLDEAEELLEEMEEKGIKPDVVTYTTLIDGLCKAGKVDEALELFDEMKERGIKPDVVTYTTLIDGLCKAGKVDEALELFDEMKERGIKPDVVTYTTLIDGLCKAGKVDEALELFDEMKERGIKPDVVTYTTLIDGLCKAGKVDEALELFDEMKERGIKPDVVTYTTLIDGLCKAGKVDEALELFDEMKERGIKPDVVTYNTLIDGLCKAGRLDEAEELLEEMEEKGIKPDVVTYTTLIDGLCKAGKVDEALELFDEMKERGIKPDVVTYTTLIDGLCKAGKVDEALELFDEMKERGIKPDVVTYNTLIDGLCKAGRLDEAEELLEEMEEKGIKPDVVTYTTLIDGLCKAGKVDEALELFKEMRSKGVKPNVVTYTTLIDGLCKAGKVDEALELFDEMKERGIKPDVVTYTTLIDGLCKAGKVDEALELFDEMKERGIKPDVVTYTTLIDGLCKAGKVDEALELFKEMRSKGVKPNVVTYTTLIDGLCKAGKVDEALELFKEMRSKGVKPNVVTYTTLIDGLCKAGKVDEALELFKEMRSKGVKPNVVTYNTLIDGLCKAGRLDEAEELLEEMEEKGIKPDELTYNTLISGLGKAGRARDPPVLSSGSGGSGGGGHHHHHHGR

NL_v2_PPR19 = target: T2, NL_v2_PPR19 (Artificial Sequence); conditions: tags: N-term luciferase, C-term 6xHis; label: 5'-biotin
T2 chain: T1 chain with K598D, K703D, K738D, K773D

NL_v2_PPR20 = target: T3, NL_v2_PPR20 (Artificial Sequence); conditions: tags: N-term luciferase, C-term 6xHis; label: 5'-biotin
T3 chain: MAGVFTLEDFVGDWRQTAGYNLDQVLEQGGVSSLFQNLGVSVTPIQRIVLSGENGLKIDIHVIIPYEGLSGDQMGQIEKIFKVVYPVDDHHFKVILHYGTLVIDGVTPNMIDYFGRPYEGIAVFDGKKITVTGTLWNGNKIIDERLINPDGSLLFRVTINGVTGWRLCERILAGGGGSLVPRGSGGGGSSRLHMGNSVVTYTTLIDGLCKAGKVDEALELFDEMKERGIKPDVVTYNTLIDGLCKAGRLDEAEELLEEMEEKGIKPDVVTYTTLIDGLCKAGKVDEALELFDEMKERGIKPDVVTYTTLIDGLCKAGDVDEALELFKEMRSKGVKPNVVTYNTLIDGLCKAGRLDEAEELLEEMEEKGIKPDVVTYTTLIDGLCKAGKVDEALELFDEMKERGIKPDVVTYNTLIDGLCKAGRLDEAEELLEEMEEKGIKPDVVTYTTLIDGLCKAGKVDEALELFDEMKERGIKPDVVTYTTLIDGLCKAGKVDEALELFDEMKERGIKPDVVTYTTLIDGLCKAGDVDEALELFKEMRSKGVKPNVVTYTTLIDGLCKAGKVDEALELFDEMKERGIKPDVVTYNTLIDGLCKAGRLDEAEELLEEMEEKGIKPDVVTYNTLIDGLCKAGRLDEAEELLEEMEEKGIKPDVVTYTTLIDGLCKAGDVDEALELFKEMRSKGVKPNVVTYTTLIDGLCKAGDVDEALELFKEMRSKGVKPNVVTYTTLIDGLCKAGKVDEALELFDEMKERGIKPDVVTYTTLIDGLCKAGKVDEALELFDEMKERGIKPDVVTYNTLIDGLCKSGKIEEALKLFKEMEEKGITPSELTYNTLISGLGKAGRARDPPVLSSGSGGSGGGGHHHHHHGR

v3.1_PPR20 = target: T4, v3.1_PPR20 (Artificial Sequence); conditions: tags: luciferase fusion; label: 5'-biotin
T4 chain: T3 chain with D318K, D528K, D668K, D703K

NL_v2_PPR21 = target: T5, NL_v2_PPR21 (Artificial Sequence); conditions: tags: N-term luciferase, C-term 6xHis; label: 5'-biotin
T5 chain: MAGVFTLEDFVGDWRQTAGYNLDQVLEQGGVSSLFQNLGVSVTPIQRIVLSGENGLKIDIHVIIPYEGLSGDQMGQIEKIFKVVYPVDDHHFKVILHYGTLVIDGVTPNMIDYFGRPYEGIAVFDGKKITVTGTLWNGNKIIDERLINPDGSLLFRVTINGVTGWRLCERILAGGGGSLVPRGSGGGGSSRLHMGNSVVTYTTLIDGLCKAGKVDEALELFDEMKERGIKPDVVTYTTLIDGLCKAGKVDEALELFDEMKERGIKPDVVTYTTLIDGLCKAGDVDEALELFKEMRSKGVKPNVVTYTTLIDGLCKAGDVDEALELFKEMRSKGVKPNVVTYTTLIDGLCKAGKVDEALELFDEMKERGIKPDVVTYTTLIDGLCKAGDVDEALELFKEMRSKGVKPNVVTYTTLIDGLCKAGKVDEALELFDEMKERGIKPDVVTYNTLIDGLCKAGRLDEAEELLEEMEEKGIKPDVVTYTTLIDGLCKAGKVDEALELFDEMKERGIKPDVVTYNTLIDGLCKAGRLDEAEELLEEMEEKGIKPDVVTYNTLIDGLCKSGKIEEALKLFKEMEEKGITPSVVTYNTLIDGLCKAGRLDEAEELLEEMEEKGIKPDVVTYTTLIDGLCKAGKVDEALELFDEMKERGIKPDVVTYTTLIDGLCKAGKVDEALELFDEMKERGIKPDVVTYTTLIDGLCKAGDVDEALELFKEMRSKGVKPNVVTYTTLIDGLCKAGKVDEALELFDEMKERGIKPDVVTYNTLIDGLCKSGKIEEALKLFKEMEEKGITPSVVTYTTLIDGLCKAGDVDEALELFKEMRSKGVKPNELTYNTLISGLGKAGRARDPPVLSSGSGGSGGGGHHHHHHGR

v3.1_PPR21 = target: T6, v3.1_PPR21 (Artificial Sequence); conditions: tags: luciferase fusion; label: 5'-biotin
T6 chain: T5 chain with D283K, D318K, D388K, D703K, D808K

GACAUGCGUGGGGGUGGUAGGAAAUGACUG (ssRNA) [RNA_19]
binding signal (v3.1_PPR19): 1.3e+07 luminescence | binding signal (NL_v2_PPR19): 1.3e+07 luminescence

GACAUGCGUGAUGUGGAGUUAAGGCGACUG (ssRNA) [RNA_20]
binding signal (NL_v2_PPR20): 1.2e+07 luminescence | binding signal (v3.1_PPR20): 3.6e+06 luminescence

GACAUGCGGAAGAGUGUCUGGAGCAGACUG (ssRNA) [RNA_21]
binding signal (NL_v2_PPR21): 5e+07 luminescence | binding signal (v3.1_PPR21): 4.9e+06 luminescence
